According to article PMC7104376 (Nature structural & molecular biology, 2020):
Where a chain is given by its changes, count along the chain named.

T1: C160, subunit of S. cerevisiae RNA polymerase III (S. cerevisiae, UniProt P04051 1-1460)
T1 sequence: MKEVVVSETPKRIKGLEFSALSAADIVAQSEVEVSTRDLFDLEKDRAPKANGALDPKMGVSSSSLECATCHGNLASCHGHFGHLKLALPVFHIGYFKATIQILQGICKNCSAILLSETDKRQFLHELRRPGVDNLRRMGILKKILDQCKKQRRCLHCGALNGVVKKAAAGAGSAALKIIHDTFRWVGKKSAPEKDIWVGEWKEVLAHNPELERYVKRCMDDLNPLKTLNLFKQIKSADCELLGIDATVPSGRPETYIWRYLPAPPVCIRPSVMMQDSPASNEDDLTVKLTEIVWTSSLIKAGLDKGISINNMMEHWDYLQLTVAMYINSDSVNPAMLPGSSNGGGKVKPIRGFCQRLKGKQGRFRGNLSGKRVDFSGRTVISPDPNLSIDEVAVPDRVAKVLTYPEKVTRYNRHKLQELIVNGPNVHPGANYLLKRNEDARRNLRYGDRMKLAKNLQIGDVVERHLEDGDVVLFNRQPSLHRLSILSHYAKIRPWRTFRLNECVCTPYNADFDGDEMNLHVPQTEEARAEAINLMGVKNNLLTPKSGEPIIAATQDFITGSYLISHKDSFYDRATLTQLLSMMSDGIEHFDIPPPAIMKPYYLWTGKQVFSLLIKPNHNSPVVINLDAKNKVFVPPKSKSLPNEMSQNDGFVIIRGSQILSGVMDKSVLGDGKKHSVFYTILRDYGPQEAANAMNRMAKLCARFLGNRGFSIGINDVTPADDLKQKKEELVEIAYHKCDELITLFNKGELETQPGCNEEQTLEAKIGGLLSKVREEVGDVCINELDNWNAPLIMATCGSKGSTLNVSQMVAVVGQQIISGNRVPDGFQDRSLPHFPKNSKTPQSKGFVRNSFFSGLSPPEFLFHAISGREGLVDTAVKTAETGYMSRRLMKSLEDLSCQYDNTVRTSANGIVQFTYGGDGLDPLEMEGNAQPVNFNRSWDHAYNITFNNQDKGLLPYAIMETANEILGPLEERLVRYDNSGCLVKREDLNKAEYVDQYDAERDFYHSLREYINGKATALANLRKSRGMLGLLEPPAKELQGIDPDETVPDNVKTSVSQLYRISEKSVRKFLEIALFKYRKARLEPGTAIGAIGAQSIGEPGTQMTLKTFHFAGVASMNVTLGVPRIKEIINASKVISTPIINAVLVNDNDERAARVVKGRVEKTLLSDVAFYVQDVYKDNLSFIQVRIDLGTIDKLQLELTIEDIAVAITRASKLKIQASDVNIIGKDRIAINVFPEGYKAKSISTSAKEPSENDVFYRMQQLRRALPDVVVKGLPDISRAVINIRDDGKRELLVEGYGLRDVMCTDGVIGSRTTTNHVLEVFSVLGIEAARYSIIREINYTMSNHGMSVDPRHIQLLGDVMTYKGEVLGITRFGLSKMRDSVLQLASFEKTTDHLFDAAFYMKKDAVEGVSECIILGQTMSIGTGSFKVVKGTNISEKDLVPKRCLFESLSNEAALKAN

T2: C34, subunit of S. cerevisiae RNA polymerase III (S. cerevisiae, UniProt P32910 1-317)
T2 sequence: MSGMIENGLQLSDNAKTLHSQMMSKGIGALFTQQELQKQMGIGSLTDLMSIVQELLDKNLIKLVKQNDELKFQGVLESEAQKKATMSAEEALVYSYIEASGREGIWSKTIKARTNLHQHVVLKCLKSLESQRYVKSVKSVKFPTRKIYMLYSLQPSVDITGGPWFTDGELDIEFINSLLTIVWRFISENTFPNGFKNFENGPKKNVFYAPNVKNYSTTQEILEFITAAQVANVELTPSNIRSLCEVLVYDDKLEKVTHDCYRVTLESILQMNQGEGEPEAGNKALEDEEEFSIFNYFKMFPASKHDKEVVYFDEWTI

T3: Maf1-id T33E/T34E (S. cerevisiae, UniProt P41910 1-395, Δ64-194 | T33E | T34E)
T3 sequence (looked up): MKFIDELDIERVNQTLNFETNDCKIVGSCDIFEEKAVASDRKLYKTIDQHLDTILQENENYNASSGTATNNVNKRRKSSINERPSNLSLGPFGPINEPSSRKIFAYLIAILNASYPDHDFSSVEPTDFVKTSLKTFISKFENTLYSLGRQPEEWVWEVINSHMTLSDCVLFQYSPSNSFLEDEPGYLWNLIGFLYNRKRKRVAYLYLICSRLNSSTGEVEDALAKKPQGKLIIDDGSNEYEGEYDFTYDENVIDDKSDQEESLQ

T4: Maf1-id L318S/W319S (S. cerevisiae, UniProt P41910 1-395, Δ64-194 | L318S | W319S)
T4 sequence (looked up): T3 sequence (looked up) with E33T, E34T, L187S, W188S

T5: Maf1-id D248A/D250A (S. cerevisiae, UniProt P41910 1-395, Δ64-194 | D248A | D250A)
T5 sequence (looked up): T3 sequence (looked up) with E33T, E34T, D117A, D119A

B1: Maf1-id (S. cerevisiae Maf1 lacking the internal non-conserved region, Δ64-194) (natural protein, UniProt P41910 1-395, looked up)
chain: T3 sequence (looked up) with E33T, E34T
B2: His-tagged C34 1-156 (the two N-terminal WH domains of C34) (domain or fragment, S. cerevisiae, UniProt P32910 1-156, looked up)
chain: MSGMIENGLQLSDNAKTLHSQMMSKGIGALFTQQELQKQMGIGSLTDLMSIVQELLDKNLIKLVKQNDELKFQGVLESEAQKKATMSAEEALVYSYIEASGREGIWSKTIKARTNLHQHVVLKCLKSLESQRYVKSVKSVKFPTRKIYMLYSLQPS

Legend:
[1] = target: T1, C160, subunit of S. cerevisiae RNA …; assay: cryo-EM structure
[2] = target: T2, C34, subunit of S. cerevisiae RNA …; assay: cryo-EM structure
Maf1-id T33E/T34E = target: T3, Maf1-id T33E/T34E; assay: pull-down
Maf1-id L318S/W319S = target: T4, Maf1-id L318S/W319S; assay: pull-down
[3] = target: B1; assay: pull-down
Maf1-id D248A/D250A = target: T5, Maf1-id D248A/D250A; assay: pull-down

Measured: binding result

B1
binds: [1] | [2]

B2
binds: Maf1-id T33E/T34E | Maf1-id L318S/W319S | [3] | Maf1-id D248A/D250A
